Test results from US20250262210A1 (TRUSTEES OF COLUMBIA UNIVERSITY IN THE CITY OF NEW YORK, published 2025).

Key:
Assay in all cases: IP/MS, LZTR1 wild type-FLAG, U87
THADA = THADA (human, UniProt Q6YHU6 1-1953, limits assumed)
Method in brief: (§1)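 Read-out: spectral counts from LC-MS/MS (Orbitrap Fusion) after MaxQuant identification. Variable modifications were Met oxidation, protein N-terminal acetylation and N/Q deamidation.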

KIAA1468 = molecular target: T1, KIAA1468 (human, UniProt Q9P260 2-1216, limits assumed)
T1 sequence (looked up): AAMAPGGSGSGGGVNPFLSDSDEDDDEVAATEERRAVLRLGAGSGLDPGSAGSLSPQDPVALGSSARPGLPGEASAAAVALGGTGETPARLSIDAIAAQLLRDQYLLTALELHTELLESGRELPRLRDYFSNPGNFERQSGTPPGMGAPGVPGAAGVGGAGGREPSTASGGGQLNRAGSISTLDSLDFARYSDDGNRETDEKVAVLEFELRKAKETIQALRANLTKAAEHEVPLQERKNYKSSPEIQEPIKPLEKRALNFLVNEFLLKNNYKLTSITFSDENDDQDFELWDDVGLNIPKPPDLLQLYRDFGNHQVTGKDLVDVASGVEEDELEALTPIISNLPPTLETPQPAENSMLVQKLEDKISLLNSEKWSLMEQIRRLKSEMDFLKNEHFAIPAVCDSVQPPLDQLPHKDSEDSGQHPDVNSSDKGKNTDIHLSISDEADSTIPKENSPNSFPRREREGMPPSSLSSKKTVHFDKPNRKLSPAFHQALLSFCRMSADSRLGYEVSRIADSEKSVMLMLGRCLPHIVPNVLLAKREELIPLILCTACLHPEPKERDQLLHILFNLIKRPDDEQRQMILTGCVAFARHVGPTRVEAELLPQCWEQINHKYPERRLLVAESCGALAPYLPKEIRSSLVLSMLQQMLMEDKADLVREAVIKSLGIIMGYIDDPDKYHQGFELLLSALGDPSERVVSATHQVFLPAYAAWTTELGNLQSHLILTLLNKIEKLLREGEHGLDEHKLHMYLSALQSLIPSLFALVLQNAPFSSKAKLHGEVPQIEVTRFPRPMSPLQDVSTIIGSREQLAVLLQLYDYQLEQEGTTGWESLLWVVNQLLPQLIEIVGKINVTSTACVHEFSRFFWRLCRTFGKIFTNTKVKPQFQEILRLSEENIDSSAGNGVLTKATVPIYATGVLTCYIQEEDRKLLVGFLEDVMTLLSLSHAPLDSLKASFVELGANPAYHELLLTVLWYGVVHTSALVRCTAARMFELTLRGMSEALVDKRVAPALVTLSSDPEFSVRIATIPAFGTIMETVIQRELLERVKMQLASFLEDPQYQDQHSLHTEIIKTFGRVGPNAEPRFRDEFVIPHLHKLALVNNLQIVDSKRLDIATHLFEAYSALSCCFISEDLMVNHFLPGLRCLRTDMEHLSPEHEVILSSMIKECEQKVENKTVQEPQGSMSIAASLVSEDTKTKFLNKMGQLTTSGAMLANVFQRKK
Method in brief: as §1

HELZ = HELZ (human, UniProt P42694 1-1942, limits assumed)
Method in brief: as §1

VPS13A = VPS13A (human, UniProt Q96RL7 1-3174, limits assumed)
Method in brief: as §1

Measured: binding result

Sequence of THADA (Q6YHU6 whole entry, the tested form may be a part): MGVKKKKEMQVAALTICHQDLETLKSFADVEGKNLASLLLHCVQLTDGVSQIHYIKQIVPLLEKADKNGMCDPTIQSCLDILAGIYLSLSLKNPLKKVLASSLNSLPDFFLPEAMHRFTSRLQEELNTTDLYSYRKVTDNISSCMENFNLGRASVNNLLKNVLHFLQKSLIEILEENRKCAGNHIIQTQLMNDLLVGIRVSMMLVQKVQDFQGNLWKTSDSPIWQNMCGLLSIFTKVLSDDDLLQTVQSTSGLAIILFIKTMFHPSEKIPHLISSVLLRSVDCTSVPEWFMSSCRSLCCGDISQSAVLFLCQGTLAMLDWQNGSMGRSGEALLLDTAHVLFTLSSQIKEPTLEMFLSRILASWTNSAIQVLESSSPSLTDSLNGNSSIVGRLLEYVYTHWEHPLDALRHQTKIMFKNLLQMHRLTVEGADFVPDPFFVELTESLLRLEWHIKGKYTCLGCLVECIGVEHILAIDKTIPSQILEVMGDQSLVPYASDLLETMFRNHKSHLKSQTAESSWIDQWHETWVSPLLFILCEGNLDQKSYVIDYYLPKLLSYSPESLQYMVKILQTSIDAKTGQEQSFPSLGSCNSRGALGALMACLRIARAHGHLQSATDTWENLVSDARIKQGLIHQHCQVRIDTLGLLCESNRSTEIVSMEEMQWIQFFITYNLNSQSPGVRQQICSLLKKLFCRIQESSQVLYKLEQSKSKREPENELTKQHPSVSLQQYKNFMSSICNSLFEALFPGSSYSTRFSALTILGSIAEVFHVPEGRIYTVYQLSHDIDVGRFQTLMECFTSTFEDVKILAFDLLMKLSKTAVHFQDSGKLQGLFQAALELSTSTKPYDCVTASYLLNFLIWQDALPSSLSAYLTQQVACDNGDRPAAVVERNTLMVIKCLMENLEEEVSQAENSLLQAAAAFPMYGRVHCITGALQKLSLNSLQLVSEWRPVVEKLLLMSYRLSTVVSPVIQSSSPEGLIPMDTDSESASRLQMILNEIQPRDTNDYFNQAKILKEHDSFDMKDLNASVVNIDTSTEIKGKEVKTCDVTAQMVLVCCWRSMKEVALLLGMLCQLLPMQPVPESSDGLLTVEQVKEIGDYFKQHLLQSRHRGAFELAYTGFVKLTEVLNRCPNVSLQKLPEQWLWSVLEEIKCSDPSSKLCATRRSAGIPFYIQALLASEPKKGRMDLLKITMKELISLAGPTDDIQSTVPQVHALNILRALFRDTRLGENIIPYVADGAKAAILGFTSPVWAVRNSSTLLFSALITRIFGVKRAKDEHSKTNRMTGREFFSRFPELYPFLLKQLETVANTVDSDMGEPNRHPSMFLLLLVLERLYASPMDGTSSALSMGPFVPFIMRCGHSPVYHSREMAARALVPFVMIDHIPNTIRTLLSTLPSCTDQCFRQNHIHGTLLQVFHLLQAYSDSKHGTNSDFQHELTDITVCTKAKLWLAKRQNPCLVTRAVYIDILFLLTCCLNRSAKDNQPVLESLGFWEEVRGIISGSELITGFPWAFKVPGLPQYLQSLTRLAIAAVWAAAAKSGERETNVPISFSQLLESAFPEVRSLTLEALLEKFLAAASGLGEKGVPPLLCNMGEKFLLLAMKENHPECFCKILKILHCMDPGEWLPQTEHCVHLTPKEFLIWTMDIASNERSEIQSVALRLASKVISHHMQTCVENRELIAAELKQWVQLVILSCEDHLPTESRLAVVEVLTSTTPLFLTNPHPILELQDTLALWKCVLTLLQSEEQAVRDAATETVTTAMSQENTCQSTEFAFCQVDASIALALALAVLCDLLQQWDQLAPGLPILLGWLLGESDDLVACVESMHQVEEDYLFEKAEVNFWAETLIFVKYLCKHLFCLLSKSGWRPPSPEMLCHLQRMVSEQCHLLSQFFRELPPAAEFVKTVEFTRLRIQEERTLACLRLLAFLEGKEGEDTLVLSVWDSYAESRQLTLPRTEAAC
Sequence of VPS13A (Q96RL7 whole entry): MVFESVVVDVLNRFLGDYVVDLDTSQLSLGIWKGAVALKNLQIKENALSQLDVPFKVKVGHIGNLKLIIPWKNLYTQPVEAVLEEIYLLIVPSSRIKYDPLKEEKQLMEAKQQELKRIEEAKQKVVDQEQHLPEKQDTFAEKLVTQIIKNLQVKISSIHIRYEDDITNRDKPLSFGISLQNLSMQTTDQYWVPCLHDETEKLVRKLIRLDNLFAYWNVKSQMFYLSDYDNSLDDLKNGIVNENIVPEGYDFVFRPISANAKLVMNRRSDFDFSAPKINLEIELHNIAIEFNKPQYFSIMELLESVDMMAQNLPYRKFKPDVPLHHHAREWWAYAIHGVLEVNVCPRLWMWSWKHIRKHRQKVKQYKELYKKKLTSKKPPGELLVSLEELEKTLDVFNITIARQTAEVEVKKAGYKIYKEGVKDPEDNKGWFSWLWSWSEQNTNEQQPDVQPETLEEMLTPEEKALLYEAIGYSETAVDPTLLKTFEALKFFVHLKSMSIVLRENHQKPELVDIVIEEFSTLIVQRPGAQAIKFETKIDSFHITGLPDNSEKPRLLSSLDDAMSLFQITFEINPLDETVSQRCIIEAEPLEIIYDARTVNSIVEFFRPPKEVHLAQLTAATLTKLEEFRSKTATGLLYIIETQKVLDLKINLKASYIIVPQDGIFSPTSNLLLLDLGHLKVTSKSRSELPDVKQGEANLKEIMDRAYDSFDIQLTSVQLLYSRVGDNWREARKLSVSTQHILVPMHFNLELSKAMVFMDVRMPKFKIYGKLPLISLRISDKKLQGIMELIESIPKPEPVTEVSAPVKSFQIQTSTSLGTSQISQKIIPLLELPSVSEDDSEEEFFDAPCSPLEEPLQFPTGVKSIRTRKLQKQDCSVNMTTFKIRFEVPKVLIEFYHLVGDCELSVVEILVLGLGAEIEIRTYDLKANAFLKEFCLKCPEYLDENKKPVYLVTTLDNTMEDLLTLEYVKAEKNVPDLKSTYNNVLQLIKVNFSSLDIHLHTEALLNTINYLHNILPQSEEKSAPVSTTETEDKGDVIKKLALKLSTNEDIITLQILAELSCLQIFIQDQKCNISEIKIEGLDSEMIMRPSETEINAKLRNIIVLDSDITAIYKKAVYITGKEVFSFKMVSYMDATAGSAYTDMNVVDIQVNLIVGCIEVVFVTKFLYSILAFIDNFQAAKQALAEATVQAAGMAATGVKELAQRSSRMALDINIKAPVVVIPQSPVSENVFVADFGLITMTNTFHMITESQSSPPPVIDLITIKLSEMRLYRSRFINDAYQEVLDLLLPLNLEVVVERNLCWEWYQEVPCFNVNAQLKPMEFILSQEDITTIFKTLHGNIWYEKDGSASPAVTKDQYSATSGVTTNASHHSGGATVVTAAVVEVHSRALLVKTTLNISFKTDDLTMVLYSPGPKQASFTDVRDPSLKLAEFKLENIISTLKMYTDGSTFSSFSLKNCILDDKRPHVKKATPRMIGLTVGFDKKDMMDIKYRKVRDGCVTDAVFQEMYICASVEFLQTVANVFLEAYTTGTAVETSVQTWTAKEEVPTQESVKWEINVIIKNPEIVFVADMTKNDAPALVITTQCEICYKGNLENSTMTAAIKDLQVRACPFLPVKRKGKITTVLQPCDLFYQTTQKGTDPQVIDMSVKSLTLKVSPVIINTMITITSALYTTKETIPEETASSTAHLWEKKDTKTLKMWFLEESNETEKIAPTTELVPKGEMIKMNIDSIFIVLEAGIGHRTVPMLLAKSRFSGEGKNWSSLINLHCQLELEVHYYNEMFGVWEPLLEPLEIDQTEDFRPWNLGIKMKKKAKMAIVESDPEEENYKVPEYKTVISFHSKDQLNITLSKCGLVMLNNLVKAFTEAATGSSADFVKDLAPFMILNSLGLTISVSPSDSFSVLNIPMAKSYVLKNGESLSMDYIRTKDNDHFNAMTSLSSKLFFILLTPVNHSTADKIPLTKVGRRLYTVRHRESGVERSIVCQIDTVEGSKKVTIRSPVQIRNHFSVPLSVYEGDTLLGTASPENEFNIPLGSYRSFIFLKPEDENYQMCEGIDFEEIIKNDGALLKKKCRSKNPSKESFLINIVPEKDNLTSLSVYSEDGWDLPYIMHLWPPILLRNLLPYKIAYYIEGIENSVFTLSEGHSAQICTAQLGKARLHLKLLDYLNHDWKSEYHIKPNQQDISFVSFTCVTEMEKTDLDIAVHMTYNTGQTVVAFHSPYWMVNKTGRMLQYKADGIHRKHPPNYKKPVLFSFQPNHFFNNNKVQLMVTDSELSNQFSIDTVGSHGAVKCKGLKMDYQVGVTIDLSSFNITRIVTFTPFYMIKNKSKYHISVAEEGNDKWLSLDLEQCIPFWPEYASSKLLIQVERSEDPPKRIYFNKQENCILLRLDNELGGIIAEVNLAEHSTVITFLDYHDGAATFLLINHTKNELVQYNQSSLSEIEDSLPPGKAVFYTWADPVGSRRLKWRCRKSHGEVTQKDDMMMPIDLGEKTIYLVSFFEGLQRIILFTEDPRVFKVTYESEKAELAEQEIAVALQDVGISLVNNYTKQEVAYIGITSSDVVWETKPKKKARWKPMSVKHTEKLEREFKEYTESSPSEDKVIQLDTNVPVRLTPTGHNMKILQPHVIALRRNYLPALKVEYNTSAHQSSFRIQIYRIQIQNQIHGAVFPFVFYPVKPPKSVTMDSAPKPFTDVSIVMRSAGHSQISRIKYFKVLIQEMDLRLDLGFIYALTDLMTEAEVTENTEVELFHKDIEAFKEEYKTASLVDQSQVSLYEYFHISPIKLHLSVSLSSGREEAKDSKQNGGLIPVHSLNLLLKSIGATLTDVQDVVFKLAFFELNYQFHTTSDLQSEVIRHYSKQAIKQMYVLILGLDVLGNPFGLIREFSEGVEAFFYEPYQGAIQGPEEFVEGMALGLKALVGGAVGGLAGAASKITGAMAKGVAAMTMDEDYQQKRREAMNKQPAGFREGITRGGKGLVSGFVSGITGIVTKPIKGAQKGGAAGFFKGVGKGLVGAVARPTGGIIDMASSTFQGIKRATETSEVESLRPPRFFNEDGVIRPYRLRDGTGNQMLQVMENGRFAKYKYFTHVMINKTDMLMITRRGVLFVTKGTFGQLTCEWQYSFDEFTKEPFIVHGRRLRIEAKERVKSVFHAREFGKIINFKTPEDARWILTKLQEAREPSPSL

B1: LZTR1-FLAG (other, human, UniProt Q8N653 1-840, looked up)
chain: MAGPGSTGGQIGAAALAGGARSKVAPSVDFDHSCSDSVEYLTLNFGPFETVHRWRRLPPCDEFVGARRSKHTVVAYKDAIYVFGGDNGKTMLNDLLRFDVKDCSWCRAFTTGTPPAPRYHHSAVVYGSSMFVFGGYTGDIYSNSNLKNKNDLFEYKFATGQWTEWKIEGRLPVARSAHGATVYSDKLWIFAGYDGNARLNDMWTIGLQDRELTCWEEVAQSGEIPPSCCNFPVAVCRDKMFVFSGQSGAKITNNLFQFEFKDKTWTRIPTEHLLRGSPPPPQRRYGHTMVAFDRHLYVFGGAADNTLPNELHCYDVDFQTWEVVQPSSDSEVGGAEVPERACASEEVPTLTYEERVGFKKSRDVFGLDFGTTSAKQPTQPASELPSGRLFHAAAVISDAMYIFGGTVDNNIRSGEMYRFQFSCYPKCTLHEDYGRLWESRQFCDVEFVLGEKEECVQGHVAIVTARSRWLRRKITQARERLAQKLEQEAAPVPREAPGVAAGGARPPLLHVAIREAEARPFEVLMQFLYTDKIKYPRKGHVEDVLLIMDVYKLALSFQLCRLEQLCRQYIEASVDLQNVLVVCESAARLQLSQLKEHCLNFVVKESHFNQVIMMKEFERLSSPLIVEIVRRKQQPPPRTPLDQPVDIGTSLIQDMKAYLEGAGAEFCDITLLLDGHPRPAHKAILAARSSYFEAMFRSFMPEDGQVNISIGEMVPSRQAFESMLRYIYYGEVNMPPEDSLYLFAAPYYYGFYNNRLQAYCKQNLEMNVTVQNVLQILEAADKTQALDMKRHCLHIIVHQFTKVSKLPTLRSLSQQLLLDIIDSLASHISDKQCAELGADI
notes: Expressed in HEK 293T, HeLa or U87 cells; used as cell lysate; also called LZTR1 wild type-FLAG; LZTR1 WT; not shown: FLAG tag at the C-terminus
binds: all assays above
